B1: 14-3-3 protein sigma (Homo sapiens), P31947 (parent)
chain: MERASLIQKAKLAEQAERYEDMAAFMKGAVEKGEELSCEERNLLSVAYKNVVGGQRAAWRVLSSIEQKSNEEGSEEKGPEVREYREKVETELQGVCDTVLGLLDSHLIKEAGDAESRVFYLKMKGDYYRYLAEVATGDDKKRIIDSARSAYQEAMDISKKEMPPTNPIRLGLALNFSVFHYEIANSPEEAISLAKTTFDEAMADLHTLSEDSYKDSTLIMQLLRDNLTLWTADNAGEEGGEAPQEPQS
partner: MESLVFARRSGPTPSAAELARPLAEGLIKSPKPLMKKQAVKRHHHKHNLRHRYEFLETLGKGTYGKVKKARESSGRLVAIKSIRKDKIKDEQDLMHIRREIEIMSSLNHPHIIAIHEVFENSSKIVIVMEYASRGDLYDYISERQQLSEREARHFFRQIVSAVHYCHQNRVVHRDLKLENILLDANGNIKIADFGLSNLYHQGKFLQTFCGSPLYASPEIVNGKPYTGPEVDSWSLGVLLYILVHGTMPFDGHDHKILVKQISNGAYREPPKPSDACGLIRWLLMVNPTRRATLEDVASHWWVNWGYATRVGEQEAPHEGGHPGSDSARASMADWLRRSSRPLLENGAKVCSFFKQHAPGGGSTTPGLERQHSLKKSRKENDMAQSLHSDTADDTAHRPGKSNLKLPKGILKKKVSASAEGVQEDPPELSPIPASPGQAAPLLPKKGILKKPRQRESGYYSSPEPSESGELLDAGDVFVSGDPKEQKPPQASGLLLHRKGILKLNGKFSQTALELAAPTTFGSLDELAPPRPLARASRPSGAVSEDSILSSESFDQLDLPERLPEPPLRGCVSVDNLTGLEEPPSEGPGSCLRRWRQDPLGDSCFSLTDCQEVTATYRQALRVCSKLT
B2: 14-3-3 protein sigma (Homo sapiens), P31947 (parent)
chain: B1 chain
partner: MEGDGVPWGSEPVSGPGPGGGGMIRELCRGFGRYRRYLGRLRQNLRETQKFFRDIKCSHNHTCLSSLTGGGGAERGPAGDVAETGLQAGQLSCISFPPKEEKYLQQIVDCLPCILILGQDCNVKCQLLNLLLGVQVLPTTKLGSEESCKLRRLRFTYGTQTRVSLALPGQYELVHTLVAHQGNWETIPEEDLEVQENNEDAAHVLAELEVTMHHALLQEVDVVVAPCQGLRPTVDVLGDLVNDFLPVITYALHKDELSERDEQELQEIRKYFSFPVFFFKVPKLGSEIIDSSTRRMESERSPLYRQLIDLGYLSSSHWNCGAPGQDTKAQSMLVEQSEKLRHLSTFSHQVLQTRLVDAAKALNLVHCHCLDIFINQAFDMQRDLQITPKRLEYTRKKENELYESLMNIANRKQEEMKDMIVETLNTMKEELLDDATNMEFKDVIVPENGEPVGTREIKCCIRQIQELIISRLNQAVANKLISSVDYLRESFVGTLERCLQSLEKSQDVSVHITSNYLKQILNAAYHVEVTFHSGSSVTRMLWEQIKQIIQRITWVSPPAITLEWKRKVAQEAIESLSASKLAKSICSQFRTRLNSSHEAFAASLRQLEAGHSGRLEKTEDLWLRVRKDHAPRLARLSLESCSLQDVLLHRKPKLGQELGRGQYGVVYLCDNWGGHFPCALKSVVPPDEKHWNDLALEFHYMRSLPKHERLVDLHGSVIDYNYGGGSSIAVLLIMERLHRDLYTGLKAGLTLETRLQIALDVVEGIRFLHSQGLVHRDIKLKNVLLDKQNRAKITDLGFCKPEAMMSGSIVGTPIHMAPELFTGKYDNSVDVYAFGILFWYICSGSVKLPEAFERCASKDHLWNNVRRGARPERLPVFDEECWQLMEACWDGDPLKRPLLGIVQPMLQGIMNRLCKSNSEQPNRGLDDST
B3: 14-3-3 protein sigma (Homo sapiens), P31947 (parent)
chain: B1 chain
partner: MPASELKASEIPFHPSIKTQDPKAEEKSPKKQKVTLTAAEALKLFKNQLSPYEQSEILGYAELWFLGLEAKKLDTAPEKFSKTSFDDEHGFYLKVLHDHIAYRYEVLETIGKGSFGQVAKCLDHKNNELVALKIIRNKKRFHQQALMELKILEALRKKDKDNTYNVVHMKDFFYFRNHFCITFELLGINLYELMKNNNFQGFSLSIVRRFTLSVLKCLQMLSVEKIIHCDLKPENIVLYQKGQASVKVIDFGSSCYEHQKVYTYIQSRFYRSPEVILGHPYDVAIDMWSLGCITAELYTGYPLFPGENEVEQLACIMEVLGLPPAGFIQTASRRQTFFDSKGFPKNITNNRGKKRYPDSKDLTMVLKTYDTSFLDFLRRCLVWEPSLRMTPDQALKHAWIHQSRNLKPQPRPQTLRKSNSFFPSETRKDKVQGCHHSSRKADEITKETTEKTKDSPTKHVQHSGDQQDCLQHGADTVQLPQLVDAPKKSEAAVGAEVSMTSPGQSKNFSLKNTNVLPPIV
B4: 14-3-3 protein sigma (Homo sapiens), P31947 (parent)
chain: B1 chain
partner: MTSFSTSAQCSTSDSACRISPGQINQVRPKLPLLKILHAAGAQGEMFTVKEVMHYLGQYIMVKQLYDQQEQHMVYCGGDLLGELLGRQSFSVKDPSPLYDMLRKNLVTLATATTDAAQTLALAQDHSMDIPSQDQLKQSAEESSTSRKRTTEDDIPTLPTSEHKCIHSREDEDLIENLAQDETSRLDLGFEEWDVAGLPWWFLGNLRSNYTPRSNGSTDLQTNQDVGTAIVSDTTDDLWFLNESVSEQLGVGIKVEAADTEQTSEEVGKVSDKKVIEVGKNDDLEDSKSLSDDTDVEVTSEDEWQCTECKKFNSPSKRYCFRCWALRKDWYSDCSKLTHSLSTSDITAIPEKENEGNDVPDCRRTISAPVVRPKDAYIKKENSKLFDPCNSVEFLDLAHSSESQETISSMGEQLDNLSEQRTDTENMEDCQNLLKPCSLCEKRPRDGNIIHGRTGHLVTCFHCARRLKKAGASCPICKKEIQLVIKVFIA
B5: 14-3-3 protein sigma (Homo sapiens), P31947 (parent)
chain: B1 chain
partner: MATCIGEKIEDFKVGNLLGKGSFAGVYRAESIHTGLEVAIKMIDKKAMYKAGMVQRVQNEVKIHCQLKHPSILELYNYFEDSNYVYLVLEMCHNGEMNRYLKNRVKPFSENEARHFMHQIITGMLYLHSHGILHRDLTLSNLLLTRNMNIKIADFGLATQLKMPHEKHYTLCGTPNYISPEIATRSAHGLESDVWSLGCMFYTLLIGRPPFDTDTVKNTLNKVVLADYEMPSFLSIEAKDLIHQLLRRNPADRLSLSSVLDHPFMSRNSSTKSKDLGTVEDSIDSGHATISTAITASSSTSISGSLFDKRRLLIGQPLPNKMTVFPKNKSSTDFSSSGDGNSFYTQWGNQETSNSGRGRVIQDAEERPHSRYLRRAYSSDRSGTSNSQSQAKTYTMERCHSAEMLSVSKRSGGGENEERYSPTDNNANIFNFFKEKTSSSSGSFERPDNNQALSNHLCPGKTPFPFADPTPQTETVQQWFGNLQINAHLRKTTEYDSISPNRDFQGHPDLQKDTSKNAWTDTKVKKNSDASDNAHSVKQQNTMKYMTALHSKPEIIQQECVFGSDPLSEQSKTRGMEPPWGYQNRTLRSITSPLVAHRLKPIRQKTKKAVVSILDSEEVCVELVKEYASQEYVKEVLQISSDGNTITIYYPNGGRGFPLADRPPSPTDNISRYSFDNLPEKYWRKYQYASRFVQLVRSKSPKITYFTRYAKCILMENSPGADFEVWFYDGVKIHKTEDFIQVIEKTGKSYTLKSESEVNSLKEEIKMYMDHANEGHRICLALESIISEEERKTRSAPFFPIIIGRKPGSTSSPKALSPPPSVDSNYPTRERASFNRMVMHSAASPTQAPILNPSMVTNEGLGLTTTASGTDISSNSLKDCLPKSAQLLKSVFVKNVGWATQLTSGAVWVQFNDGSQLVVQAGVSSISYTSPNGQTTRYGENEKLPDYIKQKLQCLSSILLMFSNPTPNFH

Variants of: B1
Settings: with nuak2_human NUAK2, Q9H093

| effect of a mutation on the interaction | Variant |
| --- | --- |
| decreasing interaction strength | K49E;R56E;V178D |

Variants of: B2
Settings: with dusty_human DSTYK

| effect of a mutation on the interaction | Variant |
| --- | --- |
| decreasing interaction strength | K49E;R56E;V178D |

Variants of: B3
Settings: with dyrk4_human DYRK4, Q9NR20

| effect of a mutation on the interaction | Variant |
| --- | --- |
| decreasing interaction strength | K49E;R56E;V178D |

Variants of: B4
Settings: with mdm4_human MDM4, O15151

| effect of a mutation on the interaction | Variant |
| --- | --- |
| decreasing interaction strength | K49E;R56E;V178D |

Variants of: B5
Settings: with plk4_human PLK4, O00444

| effect of a mutation on the interaction | Variant |
| --- | --- |
| decreasing interaction strength | K49E;R56E;V178D |
